Where two headings read alike, the source gives them in different places.
T1: human CEACAM5, cell-expressed (human, UniProt P06731 35-685)
T1 construct: whole, on cells
T1 sequence (looked up): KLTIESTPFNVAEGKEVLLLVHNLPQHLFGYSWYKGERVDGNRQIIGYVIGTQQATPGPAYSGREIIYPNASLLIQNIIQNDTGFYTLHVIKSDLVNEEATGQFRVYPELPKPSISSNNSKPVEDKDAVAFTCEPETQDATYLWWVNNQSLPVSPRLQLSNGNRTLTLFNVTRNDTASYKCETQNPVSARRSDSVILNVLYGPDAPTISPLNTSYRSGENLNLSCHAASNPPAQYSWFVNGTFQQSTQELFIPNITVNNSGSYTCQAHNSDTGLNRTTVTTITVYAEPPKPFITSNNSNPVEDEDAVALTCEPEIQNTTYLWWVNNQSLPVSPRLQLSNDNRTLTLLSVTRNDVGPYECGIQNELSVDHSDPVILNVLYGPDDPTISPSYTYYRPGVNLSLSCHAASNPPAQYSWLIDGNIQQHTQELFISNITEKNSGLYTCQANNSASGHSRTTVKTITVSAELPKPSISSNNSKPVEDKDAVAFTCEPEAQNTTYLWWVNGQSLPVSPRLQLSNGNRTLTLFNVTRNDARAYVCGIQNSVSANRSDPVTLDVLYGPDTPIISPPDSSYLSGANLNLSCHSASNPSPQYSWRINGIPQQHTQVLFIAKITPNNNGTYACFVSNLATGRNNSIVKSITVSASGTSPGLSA

T2: recombinant human CEACAM5 (human, UniProt P06731 35-685)
T2 construct: also called hCEACAM-5; R&D Systems 4128-CM
T2 sequence (looked up): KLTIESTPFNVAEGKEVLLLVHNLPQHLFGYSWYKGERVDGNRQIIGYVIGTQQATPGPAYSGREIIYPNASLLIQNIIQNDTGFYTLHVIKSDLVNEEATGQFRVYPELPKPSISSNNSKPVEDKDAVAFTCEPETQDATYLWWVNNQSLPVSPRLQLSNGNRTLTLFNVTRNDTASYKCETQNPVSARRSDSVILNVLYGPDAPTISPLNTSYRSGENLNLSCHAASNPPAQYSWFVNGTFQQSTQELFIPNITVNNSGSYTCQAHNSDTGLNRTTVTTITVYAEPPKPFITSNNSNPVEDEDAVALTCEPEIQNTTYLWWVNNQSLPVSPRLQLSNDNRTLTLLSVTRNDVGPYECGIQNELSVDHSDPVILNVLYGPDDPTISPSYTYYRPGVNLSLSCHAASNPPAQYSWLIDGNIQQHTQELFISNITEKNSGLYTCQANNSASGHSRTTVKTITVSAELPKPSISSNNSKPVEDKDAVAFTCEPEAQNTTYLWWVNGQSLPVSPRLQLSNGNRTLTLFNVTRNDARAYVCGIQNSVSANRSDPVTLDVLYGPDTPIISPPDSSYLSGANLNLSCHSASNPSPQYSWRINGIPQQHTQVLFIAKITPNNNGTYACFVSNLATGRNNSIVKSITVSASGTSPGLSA


Tests used:
[1] = molecular target: T3, human EGFR, cell-expressed (human, UniProt P00533 25-1210); assay: flow cytometry on HER14 cells (EGFR only), anti-Flag detection
T3 construct: whole, on cells; also called ErbB-1

[2] = molecular target: T1, human CEACAM5, cell-expressed; assay: FACS, LoVo cells
[3] = molecular target: T2, recombinant human CEACAM5; assay: SPR Biacore T100, immobilised hCEACAM-5
[4] = molecular target: T2, recombinant human CEACAM5; assay: ELISA, coated CEACAM5
[5] = molecular target: T1, human CEACAM5, cell-expressed; assay: FACS, LoVo cells; remark: listed apart in the source
[6] = molecular target: T2, recombinant human CEACAM5; assay: ELISA, coated CEACAM5; remark: listed apart in the source
[7] = molecular target: T4, human IL12Rβ1 extracellular domain Fc-fusion (human, UniProt P42701 24-545); assay: competition ELISA, ratio to monovalent IL12Rb1#30
T4 construct: extracellular domain; bought; also called IL12Rβ1-Fc; hIL-12Rβ1-Fc; not shown: Fc part, captured by anti-hIgG

[8] = molecular target: T5, human IL12Rβ1, cell-expressed (human, UniProt P42701 24-662); assay: cell-based or functional assay
[9] = molecular target: T5, human IL12Rβ1, cell-expressed; assay: cell-based or functional assay; remark: listed apart in the source
[10] = molecular target: T4, human IL12Rβ1 extracellular domain …; assay: competition ELISA, ratio to monovalent IL12Rb1#30; remark: listed apart in the source
[11] = molecular target: T4, human IL12Rβ1 extracellular domain …; assay: competition ELISA, coated IL-23 + IL12Rβ1-Fc
[12] = molecular target: T6, human CD4, cell-expressed (human, UniProt P01730 26-458); assay: flow cytometry on MOLM-13 cells (CD4, no IL12R or IL23R), lower left panel
T6 construct: whole, on cells

[13] = molecular target: T6, human CD4, cell-expressed; assay: flow cytometry on activated T cells of donor D838 (very high CD4, moderate IL12R), upper right panel
[14] = molecular target: T4, human IL12Rβ1 extracellular domain …; assay: competition ELISA, coated IL-12 + IL12Rβ1-Fc
[15] = molecular target: T4, human IL12Rβ1 extracellular domain …; assay: competition ELISA, ratio to monovalent IL12Rb1#31
[16] = molecular target: T4, human IL12Rβ1 extracellular domain …; assay: competition ELISA, ratio to monovalent IL12Rb1#31; remark: listed apart in the source

Binder	IC50, IL-17 release, PBMC D840 [8] [nM]	fold ctrl, IL-17 release [8] [fold]	IC50, IFNγ release, PBMC D840 [9] [nM]	IC50, IFNγ release, T cells D839 [9] [nM]	fold ctrl, IFNγ release, PBMC D840 [9] [fold]	IC50 [11] [nM]	EC50 (read off the curve) [12] [nM]	EC50 (read off the curve) [13] [nM]	IC50 [14] [nM]	other results
CEA#5 (VHH, also called T023200005; NbCEA5(K43Q, G47A, T73N, V78L)) VHH: EVQLVESGGGSVQAGGSLRLSCAASGDTYGSYWMGWFRQAPGQEREAVAAINRGGGYTVYADSVKGRFTISRDNAKNTLYLQMNSLRPDDTADYYCAASGVLGGLHEDWFNYWGQGTLVTVSS	–	–	–	–	–	–	–	–	–	binding result [1]: no binding (tested: about 1E-7 M); EC50 [2]: 2.4 nM; Kd [3]: 3.1 nM; koff [3]: 0.0033 s⁻¹; kon [3]: 1.1e+06 M⁻¹ s⁻¹; EC50 [4]: 0.11 nM
CEA#1 (VHH, also called NbCEA5) VHH: EVQLVESGGGSVQAGGSLRLSCAASGDTYGSYWMGWFRQAPGKEREGVAAINRGGGYTVYADSVKGRFTISRDTAKNTVYLQMNSLRPDDTADYYCAASGVLGGLHEDWFNYWGQGTLVTVSS	–	–	–	–	–	–	–	–	–	binding result [1]: no binding (tested: about 1E-7 M); EC50 [2]: 1 nM; Kd [3]: 0.51 nM; koff [3]: 0.00051 s⁻¹; kon [3]: 990000 M⁻¹ s⁻¹; EC50 [4]: 0.026 nM
CEA#1-35GS-ctrl (bispecific antibody, also called BI#48; T023200048) EVQLVESGGGSVQAGGSLRLSCAASGDTYGSYWMGWFRQAPGKEREGVAAINRGGGYTVYADSVKGRFTISRDTAKNTVYLQMNSLRPDDTADYYCAASGVLGGLHEDWFNYWGQGTLVTVSSGGGGSGGGGSGGGGSGGGGSGGGGSGGGGSGGGGSDVQLQASGGGSVQAGGSLRLSCAASGYTIGPYCMGWFRQAPGKEREGVAAINMGGGITYYADSVKGRFTISQDNAKNTVYLLMNSLEPEDTAIYYCAADSTIYASYYECGHGLSTGGYGYDSWGQGTQVTVSS	–	–	–	–	–	–	–	–	–	EC50 [5]: 0.92 nM; EC50 [6]: 0.026 nM
CEA#5-35GS-ctrl (bispecific antibody, also called BI#51; T023200051) EVQLVESGGGSVQAGGSLRLSCAASGDTYGSYWMGWFRQAPGQEREAVAAINRGGGYTVYADSVKGRFTISRDNAKNTLYLQMNSLRPDDTADYYCAASGVLGGLHEDWFNYWGQGTLVTVSSGGGGSGGGGSGGGGSGGGGSGGGGSGGGGSGGGGSDVQLQASGGGSVQAGGSLRLSCAASGYTIGPYCMGWFRQAPGKEREGVAAINMGGGITYYADSVKGRFTISQDNAKNTVYLLMNSLEPEDTAIYYCAADSTIYASYYECGHGLSTGGYGYDSWGQGTQVTVSS	–	–	–	–	–	–	–	–	–	EC50 [5]: 2.6 nM; EC50 [6]: 0.11 nM
IL12Rb1#30-35GS-CD4#8 (bispecific antibody, also called BI#46; T023200046) EVQLVESGGGLVQTGGSLRLSCAASGRTPRLVAMGWFRQTPGKEREFVGEIILSKGFTYYADSVKGRFTISRVNAKNTITMYLQMNSLKSEDTAVYYCAGRQNWSGSPARTNEYEYWGQGTLVTVSSGGGGSGGGGSGGGGSGGGGSGGGGSGGGGSGGGGSEVQLVESGGGSVQPGGSLTLSCGTSGRTFNVMGWFRQAPGKEREFVAAVRWSSTGIYYTQYADSVKSRFTISRDNAKNTVYLEMNSLKPEDTAVYYCAADTYNSNPARWDGYDFRGQGTLVTVSS	0.016	875	0.45	0.29	38	3	~1	~1	6.2	fold ctrl [7]: 0.6 fold; fold ctrl, IFNγ release, T cells D839 [9]: 552 fold; fold ctrl [10]: 0.5 fold
IL12Rb1#31-35GS-CD4#8 (bispecific antibody, also called BI#47; T023200047) EVQLVESGGGLVQTGGSLRLSCAASGRTPSIIAMGWFRQTPGKEREFVGEIILSKGFTYYADSVKGRFTISRANAKNTITMYLQMNSLKSEDTAVYYCAARQNWSGNPTRTNEYEYWGQGTLVTVSSGGGGSGGGGSGGGGSGGGGSGGGGSGGGGSGGGGSEVQLVESGGGSVQPGGSLTLSCGTSGRTFNVMGWFRQAPGKEREFVAAVRWSSTGIYYTQYADSVKSRFTISRDNAKNTVYLEMNSLKPEDTAVYYCAADTYNSNPARWDGYDFRGQGTLVTVSS	0.23	565	1.9	4.1	41	13	~1	~1	24	fold ctrl [15]: 0.9 fold; fold ctrl [16]: 0.8 fold
CD4#8-35GS-IL12Rb1#30 (bispecific antibody, also called BI#40; T023200040) EVQLVESGGGSVQPGGSLTLSCGTSGRTFNVMGWFRQAPGKEREFVAAVRWSSTGIYYTQYADSVKSRFTISRDNAKNTVYLEMNSLKPEDTAVYYCAADTYNSNPARWDGYDFRGQGTLVTVSSGGGGSGGGGSGGGGSGGGGSGGGGSGGGGSGGGGSEVQLVESGGGLVQTGGSLRLSCAASGRTPRLVAMGWFRQTPGKEREFVGEIILSKGFTYYADSVKGRFTISRVNAKNTITMYLQMNSLKSEDTAVYYCAGRQNWSGSPARTNEYEYWGQGTLVTVSS	0.035	1630	0.36	0.28	47	3.6	~1	~1	7.3	fold ctrl [7]: 0.5 fold; fold ctrl, IFNγ release, T cells D839 [9]: 429 fold; fold ctrl [10]: 0.4 fold
CD4#8-35GS-IL12Rb1#31 (bispecific antibody, also called BI#41; T023200041) EVQLVESGGGSVQPGGSLTLSCGTSGRTFNVMGWFRQAPGKEREFVAAVRWSSTGIYYTQYADSVKSRFTISRDNAKNTVYLEMNSLKPEDTAVYYCAADTYNSNPARWDGYDFRGQGTLVTVSSGGGGSGGGGSGGGGSGGGGSGGGGSGGGGSGGGGSEVQLVESGGGLVQTGGSLRLSCAASGRTPSIIAMGWFRQTPGKEREFVGEIILSKGFTYYADSVKGRFTISRANAKNTITMYLQMNSLKSEDTAVYYCAARQNWSGNPTRTNEYEYWGQGTLVTVSS	0.17	1710	2.2	1.7	50	15	~1	~1	28	fold ctrl [15]: 0.8 fold; fold ctrl [16]: 0.7 fold
